The RNAGym collection of RNA variant scans (doi:10.7554/elife.90254)

B1: LINE1-full (parent)
chain: UACGUAGGUGGUUUUCCCCUGAUAGUGCUAAGGGGGCCUGGAAGUUUGGACUGGGCAGAGCUCAACACAGCGUGGCAAAGUGGCUGUGGCUAGACUGCCUCUCUGGAUUCCUCGUCACUCAGCAGGGCAUCUCUGAGAGAAAUGCC

Variants of: B1
Assay: self-cleavage, relative activity (ratio to wild type); higher = more cleavage; in vitro, sequencing; the parent is a self-cleaving ribozyme

Variant | self-cleavage
A59G A94C | 0.29
U62A | 0.04
A57U A94C | 0.1
C61A A69U | 0.02
A59G A92C | 0.14
A59G A92U | 0.1
A57U U100C | 0.19
C61U G105A | 0.02
A59G C76U | 0.12
A59U A121U | 0.79
A59G U73A | 0.08
A59G U73G | 0.12
A59G A77U | 0.05
A59G A77C | 0.33
G58A A142G | 0
G58A U109A | 0.04
A59G C123U | 0.05
G58U U62C | 0
G58U U62A | 0.02
U62A U108C | 0.04
U62A A121G | 0.06
A57U G106U | 0.09
C61A A94G | 0.04
A59U A77G | 1.01

Variant | self-cleavage
A59G U62C | 0.1
A59G U62A | 0.06
U62A A77G | 0.07
U62A A77U | 0.01
C61U U119C | 0.05
A57U G144A | 0.16
A59G G60C | 0.07
A59G U134C | 0.15
A57U U108C | 0.17
A59U U104C | 1.02
A59U A78G | 0.68
A59U A78U | 1.43
G60A G139U | 0.03
A59G G114U | 0.07
A59U A67G | 0.39
A57U A121G | 0.15
A57U A121U | 0.12
A59G G106A | 0.06
U62A C133U | 0.04
A59G A129U | 0.19
A57G U108A | 0.8
G60A U109C | 0.02
A59G A69U | 0.06
A59C A67G | 0

Variant | self-cleavage
C61G U100C | 0.06
A57U G127A | 0.1
A59G A107G | 0.09
A59U U108G | 0.84
A59U U108C | 1.09
G60A U100C | 0.03
A59G C103U | 0.06
G58A U62C | 0.08
G58A A121G | 0.13
G60A G105U | 0.01
G60U A138G | 0.04
U62A A140G | 0.04
U62A A140U | 0.03
A59G U115C | 0.07
A59G U115A | 0.11
A59G C71U | 0.04
A59U G126A | 0.59
G58U A124C | 0.03
G58U A124G | 0.01
U62A U87A | 0.04
A59U A107G | 1.96
G58U A136G | 0.01
A59U U85A | 0.1
A59U U85C | 0.16

Variant | self-cleavage
A57U G58U | 0.04
G58U A140G | 0.05
G60A A107G | 0.03
A59G A78U | 0.1
A59G G126U | 0.11
A57U U143C | 0.14
G60A A124G | 0.05
U62A A64C | 0.11
U62A A64G | 0.05
A57U U102A | 0.08
G60A U73C | 0.02
G60A U73A | 0.02
A57U A107G | 0.14
A57U A107U | 0.02
A59G U132C | 0.11
G58C G72U | 0.02
A57G U115A | 0.81
A57G U115C | 1.3
G60A G127A | 0.03
A57G U85C | 0.16
A57G U85A | 0.13
A57G U85G | 0.23
G58A A140G | 0.04
G58U A142G | 0.03

Variant | self-cleavage
G60A A121U | 0.1
A59C A142G | 0.57
C61U A124U | 0.03
C61U A124G | 0.04
A59C C146U | 1.23
A57U A59G | 0.05
C61U U73C | 0.02
A59G A136U | 0.09
A57G U119C | 1.4
C61U A77G | 0.06
A59G C133G | 0.12
A59G U100A | 0.07
A59G U100C | 0.16
A59G C95A | 0.01
G60A U143C | 0
A59U U87A | 0.07
A57U U73A | 0.06
A57U U73C | 0.1
G58U U100C | 0.09
G58U U100G | 0.2
C61U U85A | 0.03
G60A U96A | 0.03
G60A U96C | 0.01
G58U U81C | 0.05

Variant | self-cleavage
G60A U112A | 0.04
A59U U130C | 0.63
C61U A117G | 0.05
G60U A64U | 0.05
U62A U96C | 0.06
U62A U96A | 0.04
A59U C123U | 0.8
G60A U102C | 0.01
A59G A79U | 0.07
A57U G83A | 0.03
A57G U134C | 0.93
A57G U134A | 0.62
A57G U134G | 0.78
C61A A124G | 0.04
C61U U96C | 0.03
A57U A141G | 0.11
A59C U134A | 1.46
U62A C116A | 0.05
U62A U112A | 0.05
U62A U112C | 0.04
A57U U132A | 0.13
U62A U91C | 0.04
C61A A107G | 0
G60C U73C | 0.04

Variant | self-cleavage
A59U A79C | 1.23
A57U G126A | 0.07
G58U C71U | 0.04
A57U A142U | 0.08
A57U A142G | 0.12
A57U A140U | 0.2
A57U A140G | 0.11
A59G U119C | 0.13
A59G U119A | 0.09
A59G U104G | 0.08
A59G U104C | 0.15
A59U U134G | 1.26
A59G U130C | 0.17
A59G U130A | 0.1
A57U A69U | 0
A57U A69G | 0.08
A59G G135A | 0.08
G58C A124U | 0.03
A57G U100A | 0.3
A59G G88A | 0.06
A57U A78U | 0.03
G58A U81C | 0.05
G60A U62A | 0.01
C61U U102C | 0.03

Variant | self-cleavage
A59G U143C | 0.1
A59G U143G | 0.03
A57U C110U | 0.05
A57U C110A | 0.19
A57U C90U | 0.02
C61U C76U | 0.04
A57U C61U | 0.03
A59G C113U | 0.06
A59G C113A | 0.07
C61G A77U | 0.04
U62A C71U | 0
U62A C71G | 0.05
C61G U85C | 0.15
A57U A124U | 0.09
G60A A77G | 0.03
G60A C68U | 0.03
G58A A77G | 0.06
U62A U109C | 0.05
C61U A94G | 0.06
G60A C111U | 0.04
G60A C111G | 0.02
U62A A79G | 0.04
U62A A107G | 0.06
A57U C66G | 0.05

Variant | self-cleavage
G58U U87C | 0.03
U62A U119C | 0.03
G58A U73C | 0.04
A59G U87A | 0.06
A59G U87G | 0
A59G U87C | 0.11
A59G A117C | 0.2
A59G A117G | 0.18
G58A A94G | 0
A57U C99U | 0.04
C61A U102C | 0.05
G60A U115C | 0.04
A59G U109A | 0.09
A57U A77U | 0.05
A59G A67U | 0.06
A59G U85A | 0.04
A59G U85G | 0.14
A59G U85C | 0.09
A57U U104A | 0.06
G58A A64G | 0.03
C61U U91C | 0.03
G58A G144A | 0.04
G58A U134C | 0.01
A59G G97A | 0.03

Variant | self-cleavage
G58A C71U | 0.03
G58A U104A | 0.03
A57G U104C | 1.11
A59G U81G | 0.09
G60A A94G | 0
G60A A94C | 0.01
A59C U102C | 2.07
A59C U102A | 1.1
G58U U132C | 0.01
G60A C146A | 0.02
A59U U115C | 1.34
A57G U130C | 1.3
A57G U130A | 1.27
A57U A65G | 0.07
A57U G125A | 0.04
U62A C131U | 0.02
A57U A117U | 0.13
A57U A117G | 0.09
A57U A117C | 0.28
A59G U102C | 0.1
A59G U102A | 0
A57U C120A | 0.05
G60U A121C | 0.03
A59G U96G | 0

Variant | self-cleavage
A59G U96C | 0.04
A59U A136U | 0.87
A57U C63A | 0.04
G60A C61G | 0.04
A59U C128U | 1.02
C61U A129U | 0.02
A57G U91C | 0.4
A57G U91A | 0.34
A57U A129G | 0.13
A59U U73A | 0.94
A59C A117G | 2.7
A59C A138U | 1.62
C61U U130C | 0.05
G58U A64U | 0.05
A59U U91C | 0.34
G60A A138U | 0.05
A57G U112C | 0.68
U62A U81G | 0.02
G58A U119C | 0.06
A57U A67U | 0.02
A57G U102A | 0.82
A57G U102G | 0.19
G60C U96A | 0.04
C61U U115C | 0.02

Variant | self-cleavage
A59G G125C | 0.2
A59G A65U | 0.08
A59C | 0.96
A59G | 0.09
A59U | 0.8
G60U U104C | 0.04
G60A U119A | 0.11
G60U A65U | 0.02
A57U A136C | 0.1
U62A U73A | 0.04
A57G U109C | 0.49
A59U A94G | 1.71
A59U G60A | 0.05
C61U U108C | 0.01
A59U U102C | 0.94
C61U U104A | 0.02
A57U C98G | 0.06
A57G U87G | 0.14
A57G U87C | 0.11
A59U G89A | 0.04
A57U G88A | 0.04
A59G C90U | 0.03
A57U U115C | 0.18
U62A A141U | 0.01

Variant | self-cleavage
C61U A67G | 1.08
A59G A138G | 0.1
A57U U119C | 0.06
A57U U134A | 0.1
A57U A138U | 0.12
A59G A64U | 0.08
A59G A64C | 0
A59G A64G | 0.06
C61G A124U | 0.11
A57U C84A | 0.21
A59G G80A | 0.08
A57G U96G | 0
G58U U143C | 0.07
G58U A69G | 0.07
G58U A78G | 0.03
A57U U85C | 0.06
A57U U85A | 0.05
C61A A78G | 0.04
A57U A64C | 0.06
A57U | 0.1
C61A C123U | 0.03
A59G C61A | 0.03
G60A C113U | 0
U62A U102C | 0.01

Variant | self-cleavage
U62A U102A | 0.01
U62A U102G | 0.08
C61U A65G | 0.06
A59U A124G | 0.75
A59U A124U | 0.68
A57U U62A | 0.03
A57U U62C | 0.05
A57U U62G | 0
U62A A94G | 0.04
U62A G127U | 0.02
A59C U73A | 1.45
C61A U62C | 0.08
A59G C84A | 0.04
U62A A67G | 0.07
U62A A67U | 0.06
C61U U134G | 0
A59G A124G | 0.13
A59U A64U | 0.62
A59G U108C | 0.11
A59G U108A | 0.11
U62A U100C | 0.23
U62A U100A | 0.05
